Biological target: Lon protease of E. coli (endogenous) (E. coli) (UniProt P0A9M0)
Experiment: cell-based or functional assay

UniProt P0A9M0, sequence (P0A9M0 2-784 limits assumed): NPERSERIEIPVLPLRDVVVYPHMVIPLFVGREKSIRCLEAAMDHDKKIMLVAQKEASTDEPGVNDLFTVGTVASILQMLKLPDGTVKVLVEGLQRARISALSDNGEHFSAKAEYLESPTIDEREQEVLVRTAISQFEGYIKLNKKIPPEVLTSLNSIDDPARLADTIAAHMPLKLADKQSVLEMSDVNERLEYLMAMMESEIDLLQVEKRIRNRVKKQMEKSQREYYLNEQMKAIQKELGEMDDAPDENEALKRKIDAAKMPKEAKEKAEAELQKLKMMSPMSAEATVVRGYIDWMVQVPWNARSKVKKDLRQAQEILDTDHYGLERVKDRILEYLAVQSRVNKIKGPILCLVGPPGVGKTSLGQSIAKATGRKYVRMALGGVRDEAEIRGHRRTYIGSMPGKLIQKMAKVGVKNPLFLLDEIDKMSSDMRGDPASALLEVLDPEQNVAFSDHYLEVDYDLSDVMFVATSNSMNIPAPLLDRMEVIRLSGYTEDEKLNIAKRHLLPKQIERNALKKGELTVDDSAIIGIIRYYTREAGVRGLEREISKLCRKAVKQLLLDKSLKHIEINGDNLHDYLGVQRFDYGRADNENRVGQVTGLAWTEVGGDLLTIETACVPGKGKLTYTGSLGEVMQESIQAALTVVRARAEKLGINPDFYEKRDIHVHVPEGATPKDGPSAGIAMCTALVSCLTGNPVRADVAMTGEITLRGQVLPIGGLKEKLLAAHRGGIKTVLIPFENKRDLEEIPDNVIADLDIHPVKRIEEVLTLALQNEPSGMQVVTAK

Substance: T7 phage gene product (Gp) 4.5 expressed in E. coli from a plasmid (peptide)
- fold decrease in persistence: fraction of surviving E. coli cells following 5 hr exposure to ampicillin: 5 fold

Reference: patent US20140178353A1
